Reference: IntAct's records for PubMed 29374201

B1: Complement factor H (Homo sapiens), P08603 (parent)
chain: MRLLAKIICLMLWAICVAEDCNELPPRRNTEILTGSWSDQTYPEGTQAIYKCRPGYRSLGNVIMVCRKGEWVALNPLRKCQKRPCGHPGDTPFGTFTLTGGNVFEYGVKAVYTCNEGYQLLGEINYRECDTDGWTNDIPICEVVKCLPVTAPENGKIVSSAMEPDREYHFGQAVRFVCNSGYKIEGDEEMHCSDDGFWSKEKPKCVEISCKSPDVINGSPISQKIIYKENERFQYKCNMGYEYSERGDAVCTESGWRPLPSCEEKSCDNPYIPNGDYSPLRIKHRTGDEITYQCRNGFYPATRGNTAKCTSTGWIPAPRCTLKPCDYPDIKHGGLYHENMRRPYFPVAVGKYYSYYCDEHFETPSGSYWDHIHCTQDGWSPAVPCLRKCYFPYLENGYNQNYGRKFVQGKSIDVACHPGYALPKAQTTVTCMENGWSPTPRCIRVKTCSKSSIDIENGFISESQYTYALKEKAKYQCKLGYVTADGETSGSITCGKDGWSAQPTCIKSCDIPVFMNARTKNDFTWFKLNDTLDYECHDGYESNTGSTTGSIVCGYNGWSDLPICYERECELPKIDVHLVPDRKKDQYKVGEVLKFSCKPGFTIVGPNSVQCYHFGLSPDLPICKEQVQSCGPPPELLNGNVKEKTKEEYGHSEVVEYYCNPRFLMKGPNKIQCVDGEWTTLPVCIVEESTCGDIPELEHGWAQLSSPPYYYGDSVEFNCSESFTMIGHRSITCIHGVWTQLPQCVAIDKLKKCKSSNLIILEEHLKNKKEFDHNSNIRYRCRGKEGWIHTVCINGRWDPEVNCSMAQIQLCPPPPQIPNSHNMTTTLNYRDGEKVSVLCQENYLIQEGEEITCKDGRWQSIPLCVEKIPCSQPPQIEHGTINSSRSSQESYAHGTKLSYTCEGGFRISEENETTCYMGKWSSPPQCEGLPCKSPPEISHGVVAHMSDSYQYGEEVTYKCFEGFGIDGPAIAKCLGEKWSHPPSCIKTDCLSLPSFENAIPMGEKKDVYKAGEQVTYTCATYYKMDGASNVTCINSRWTGRPTCRDTSCVNPPTVQNAYIVSRQMSKYPSGERVRYQCRSPYEMFGDEEVMCLNGNWTEPPQCKDSTGKCGPPPPIDNGDITSFPLSVYAPASSVEYQCQNLYQLEGNKRITCRNGQWSEPPKCLHPCVISREIMENYNIALRWTAKQKLYSRTGESVEFVCKRGYRLSSRSHTLRTTCWDGKLEYPTCAKR
partner: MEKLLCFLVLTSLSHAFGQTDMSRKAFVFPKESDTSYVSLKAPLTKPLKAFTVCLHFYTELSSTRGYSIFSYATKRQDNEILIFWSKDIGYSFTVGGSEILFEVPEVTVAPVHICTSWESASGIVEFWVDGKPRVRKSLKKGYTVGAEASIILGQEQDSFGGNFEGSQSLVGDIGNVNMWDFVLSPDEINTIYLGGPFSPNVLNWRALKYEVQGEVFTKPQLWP
B2: Complement factor H (Homo sapiens), P08603-2 (parent)
chain: MRLLAKIICLMLWAICVAEDCNELPPRRNTEILTGSWSDQTYPEGTQAIYKCRPGYRSLGNVIMVCRKGEWVALNPLRKCQKRPCGHPGDTPFGTFTLTGGNVFEYGVKAVYTCNEGYQLLGEINYRECDTDGWTNDIPICEVVKCLPVTAPENGKIVSSAMEPDREYHFGQAVRFVCNSGYKIEGDEEMHCSDDGFWSKEKPKCVEISCKSPDVINGSPISQKIIYKENERFQYKCNMGYEYSERGDAVCTESGWRPLPSCEEKSCDNPYIPNGDYSPLRIKHRTGDEITYQCRNGFYPATRGNTAKCTSTGWIPAPRCTLKPCDYPDIKHGGLYHENMRRPYFPVAVGKYYSYYCDEHFETPSGSYWDHIHCTQDGWSPAVPCLRKCYFPYLENGYNQNYGRKFVQGKSIDVACHPGYALPKAQTTVTCMENGWSPTPRCIRVSFTL
B3: Complement factor H (Homo sapiens), P08603-2 (parent)
chain: B2 chain
partner: B1 partner

Variants of: B1
Conditions: with crp_human CRP

Row | Variant | effect of a mutation on the interaction
1 | Y402H | decreasing interaction strength

Variants of: B2
Conditions: with ptx3_human PTX3, P26022
ptx3_human PTX3, P26022, sequence (P26022 whole entry): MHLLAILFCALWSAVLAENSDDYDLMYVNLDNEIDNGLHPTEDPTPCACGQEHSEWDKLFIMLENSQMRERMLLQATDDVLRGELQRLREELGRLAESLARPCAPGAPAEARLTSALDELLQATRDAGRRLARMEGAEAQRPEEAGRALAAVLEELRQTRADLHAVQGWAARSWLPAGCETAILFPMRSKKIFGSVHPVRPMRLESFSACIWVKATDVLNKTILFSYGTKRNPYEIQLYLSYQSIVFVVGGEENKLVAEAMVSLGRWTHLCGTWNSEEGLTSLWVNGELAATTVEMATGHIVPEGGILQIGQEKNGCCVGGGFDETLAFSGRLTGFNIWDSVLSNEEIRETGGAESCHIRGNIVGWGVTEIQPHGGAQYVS

Row | Variant | effect of a mutation on the interaction
2 | Y402H | disrupting interaction strength

Variants of: B2
Conditions: with ptx3_human PTX3, P26022
Remark: another data set of the same source

Row | Variant | effect of a mutation on the interaction
3 | Y402H | decreasing interaction strength

Variants of: B3
Conditions: with crp_human CRP

Row | Variant | effect of a mutation on the interaction
4 | Y402H | decreasing interaction strength
